The values below come from doi:10.1101/2022.06.01.494241.

For the test, the target named is mLight (rat). The conditions noted are these: scale: % ΔF/Fo.

“[D-Ala^2, N-MePhe^4, Gly-ol]-enkephalin (peptide)” had a sensor fluorescence response (ΔF/Fo) in HEK293 cells, 500 nM to 100 μM DAMGO of 9.06.
